Results published in the Immune Epitope Database (IEDB).
Each block holds one sequence with its values, some of them ahead of it.

Key:
HLA-C*07:02 = experiment: IEDB peptide-MHC binding, purified MHC/direct/fluorescence; filed as Kd, often an IC50 or EC50 that approximates it; ≥ and ≤ were set here for values at or beyond the usual limits of such assays; conditions: source organism: Canis lupus familiaris
HLA-C*04:01 = experiment: as above; conditions: source organism: Canis lupus familiaris
HLA-A*02:01 [1] = experiment: IEDB peptide-MHC binding, purified MHC/competitive/radioactivity; ≥ and ≤ were set here for values at or beyond the usual limits of such assays; conditions: source organism: Homo sapiens
HLA-A*24:02 = experiment: as above; conditions: source organism: Homo sapiens
HLA-A*01:01 [2] = experiment: as above
HLA-B*51:01 = experiment: IEDB peptide-MHC binding, purified MHC/direct/fluorescence; filed as Kd, often an IC50 or EC50 that approximates it; ≥ and ≤ were set here for values at or beyond the usual limits of such assays; conditions: source organism: Vibrio cholerae
HLA-B*27:05 = experiment: as above
HLA-B*39:01 [3] = experiment: as above; conditions: source organism: Vibrio cholerae V52
HLA-B*58:01 = experiment: as above
HLA-B*40:01 = experiment: as above
HLA-A*69:01 = experiment: as above
HLA-B*18:01 = experiment: as above
HLA-B*15:17 [4] = experiment: as above; conditions: source organism: Vibrio cholerae
HLA-A*11:01 [5] = experiment: as above
HLA-B*15:01 = experiment: as above
HLA-B*07:02 = experiment: as above
HLA-B*48:01 = experiment: as above
HLA-B*46:01 = experiment: as above
HLA-A*03:01 = experiment: as above; conditions: source organism: Vibrio cholerae
HLA-B*57:01 [6] = experiment: as above
HLA-A*01:01 [7] = experiment: as above
HLA-A*31:01 [8] = experiment: IEDB peptide-MHC binding, purified MHC/competitive/fluorescence; filed as Kd, often an IC50 or EC50 that approximates it; ≥ and ≤ were set here for values at or beyond the usual limits of such assays; conditions: source organism: Vibrio cholerae O1 biovar El Tor str. N16961
HLA-A*30:01 = experiment: as above; conditions: source organism: Vibrio cholerae O1 biovar El Tor str. N16961
HLA-B*08:01 = experiment: as above; conditions: source organism: Vibrio cholerae O1 biovar El Tor str. N16961
HLA-B*15:09 = experiment: as above
HLA-A*02:01 [9] = experiment: IEDB peptide-MHC binding, purified MHC/direct/fluorescence; filed as Kd, often an IC50 or EC50 that approximates it; ≥ and ≤ were set here for values at or beyond the usual limits of such assays; conditions: source organism: Mycobacterium tuberculosis
HLA-A*31:01 [10] = experiment: as above
HLA-A*26:01 [11] = experiment: as above; conditions: source organism: Mycobacterium tuberculosis str. Haarlem
HLA-A*68:02 [12] = experiment: as above; conditions: source organism: Mycobacterium tuberculosis
HLA-A*26:03 = experiment: IEDB peptide-MHC binding, purified MHC/competitive/fluorescence; filed as Kd, often an IC50 or EC50 that approximates it; ≥ and ≤ were set here for values at or beyond the usual limits of such assays; conditions: source organism: Mycolicibacterium gilvum PYR-GCK
HLA-B*15:17 [13] = experiment: as above
HLA-B*35:01 = experiment: as above; conditions: source organism: Mycolicibacterium gilvum PYR-GCK
HLA-A*02:06 = experiment: as above
HLA-A*02:01 [14] = experiment: IEDB peptide-MHC binding, cellular MHC/competitive/fluorescence; ≥ and ≤ were set here for values at or beyond the usual limits of such assays; conditions: source organism: Homo sapiens
HLA-B*53:01 = experiment: IEDB peptide-MHC binding, purified MHC/competitive/fluorescence; ≥ and ≤ were set here for values at or beyond the usual limits of such assays; conditions: source organism: Human herpesvirus 4 type 2
HLA-A*11:01 [15] = experiment: IEDB peptide-MHC binding, purified MHC/competitive/fluorescence; filed as Kd, often an IC50 or EC50 that approximates it; ≥ and ≤ were set here for values at or beyond the usual limits of such assays; conditions: source organism: human gammaherpesvirus 4
HLA-C*08:02 = experiment: IEDB peptide-MHC binding, purified MHC/direct/fluorescence; filed as Kd, often an IC50 or EC50 that approximates it; ≥ and ≤ were set here for values at or beyond the usual limits of such assays; conditions: source organism: Orthomarburgvirus marburgense
HLA-A*24:03 = experiment: as above; conditions: source organism: Marburg virus - Musoke, Kenya, 1980
HLA-A*23:01 = experiment: as above; conditions: source organism: Marburg virus - Musoke, Kenya, 1980
HLA-B*08:02 = experiment: as above; conditions: source organism: Ravn virus - Ravn, Kenya, 1987
HLA-A*26:02 = experiment: IEDB peptide-MHC binding, purified MHC/competitive/fluorescence; filed as Kd, often an IC50 or EC50 that approximates it; ≥ and ≤ were set here for values at or beyond the usual limits of such assays; conditions: source organism: Orthomarburgvirus marburgense
HLA-B*39:01 [16] = experiment: as above; conditions: source organism: Orthomarburgvirus marburgense
HLA-A*26:01 [17] = experiment: as above; conditions: source organism: Orthomarburgvirus marburgense
HLA-A*68:02 [18] = experiment: as above; conditions: source organism: Orthomarburgvirus marburgense
HLA-B*57:01 [19] = experiment: as above; conditions: source organism: Orthomarburgvirus marburgense
[20] = source organism: Vibrio cholerae
[21] = source organism: Mycobacterium tuberculosis
[22] = source organism: Mycolicibacterium gilvum PYR-GCK
[23] = source organism: Marburg virus - Musoke, Kenya, 1980
[24] = source organism: Orthomarburgvirus marburgense

Sequence: HYNAFHWAI
Kd (HLA-C*07:02): 0.047 µM
Kd (HLA-C*04:01): ≥ 20 µM

IC50 (HLA-A*02:01 [1]): 0.25 µM
Sequence: RLDCWRGGQV

IC50 (HLA-A*24:02): 0.153 µM
Sequence: FYDPMFKYHL

Sequence: KSAIVTLTY
IC50 (HLA-A*01:01 [2]; source organism: Human papillomavirus 16): 0.011 µM

Sequence: YLKKGRLSL
Kd (HLA-B*51:01): ≥ 20 µM
Kd (HLA-B*27:05; [20]): ≥ 20 µM
Kd (HLA-B*39:01 [3]): ≥ 20 µM
Kd (HLA-B*58:01; [20]): ≥ 20 µM
Kd (HLA-B*40:01; [20]): ≥ 20 µM
Kd (HLA-A*69:01; [20]): ≥ 20 µM
Kd (HLA-B*18:01; [20]): ≥ 20 µM
Kd (HLA-B*15:17 [4]): ≥ 20 µM
Kd (HLA-A*11:01 [5]; [20]): ≥ 20 µM
Kd (HLA-B*15:01; source organism: Vibrio cholerae V52): 0.053 µM
Kd (HLA-B*07:02; [20]): 0.123 µM
Kd (HLA-B*48:01; [20]): ≥ 20 µM
Kd (HLA-B*46:01; [20]): 5.06 µM
Kd (HLA-A*03:01): ≥ 20 µM
Kd (HLA-B*57:01 [6]; [20]): ≥ 20 µM
Kd (HLA-A*01:01 [7]; [20]): ≥ 20 µM
Kd (HLA-A*31:01 [8]): ≥ 20 µM
Kd (HLA-A*30:01): 1.49 µM
Kd (HLA-B*08:01): 0.0532 µM
Kd (HLA-B*15:09; source organism: Vibrio cholerae O1 biovar El Tor str. N16961): ≥ 20 µM

IC50 (HLA-A*24:02): 0.522 µM
Sequence: IFSKASEYL

Sequence: YGDDVIFSY
IC50 (HLA-A*01:01 [2]; source organism: Rhinovirus A): 0.2 µM

Sequence: ALYLLDGLR
Kd (HLA-A*02:01 [9]): ≥ 20 µM
Kd (HLA-B*27:05; [21]): ≥ 20 µM
Kd (HLA-B*58:01; [21]): ≥ 20 µM
Kd (HLA-A*31:01 [10]; [21]): 0.106 µM
Kd (HLA-B*40:01; [21]): ≥ 20 µM
Kd (HLA-A*69:01; [21]): ≥ 20 µM
Kd (HLA-B*18:01; [21]): ≥ 20 µM
Kd (HLA-A*26:01 [11]): ≥ 20 µM
Kd (HLA-A*11:01 [5]; [21]): 7.37 µM
Kd (HLA-B*15:01; [21]): ≥ 20 µM
Kd (HLA-A*68:02 [12]): ≥ 20 µM
Kd (HLA-B*07:02; [21]): ≥ 20 µM
Kd (HLA-B*48:01; [21]): ≥ 20 µM
Kd (HLA-B*46:01; [21]): ≥ 20 µM
Kd (HLA-B*57:01 [6]; [21]): ≥ 20 µM
Kd (HLA-A*01:01 [7]; [21]): ≥ 20 µM
Kd (HLA-A*26:03): 1 µM
Kd (HLA-B*15:17 [13]; [22]): 0.446 µM
Kd (HLA-B*35:01): 1.21 µM
Kd (HLA-A*02:06; [22]): ≥ 20 µM

IC50 (HLA-A*02:01 [14]): 1.18 µM
Sequence: ALLDKLYAL

IC50 (HLA-A*02:01 [1]): 0.333 µM
Sequence: LLAVGATKV

Sequence: FSSQLGLFY
IC50 (HLA-B*53:01): 2.97 µM
Kd (HLA-A*11:01 [15]): 0.947 µM

IC50 (HLA-A*02:01 [14]): 0.56 µM
Sequence: LLDRFLATV

Sequence: YLAPSYRNF
Kd (HLA-C*08:02): ≥ 20 µM
Kd (HLA-A*24:03): 0.0165 µM
Kd (HLA-B*58:01; source organism: Ravn virus - Ravn, Kenya, 1987): 0.43 µM
Kd (HLA-A*31:01 [10]; [23]): ≥ 20 µM
Kd (HLA-A*69:01; [23]): ≥ 20 µM
Kd (HLA-B*18:01; [23]): ≥ 20 µM
Kd (HLA-A*11:01 [5]; [23]): ≥ 20 µM
Kd (HLA-B*07:02; [23]): ≥ 20 µM
Kd (HLA-A*23:01): 0.023 µM
Kd (HLA-B*08:02): ≥ 20 µM
Kd (HLA-A*01:01 [7]; [23]): ≥ 20 µM
Kd (HLA-A*26:02): 0.0042 µM
Kd (HLA-B*39:01 [16]): ≥ 20 µM
Kd (HLA-A*26:01 [17]): 5.13 µM
Kd (HLA-B*15:17 [13]; [24]): 3.98 µM
Kd (HLA-A*68:02 [18]): 3.22 µM
Kd (HLA-B*15:09; [24]): ≥ 20 µM
Kd (HLA-A*02:06; [24]): ≥ 20 µM
Kd (HLA-B*57:01 [19]): ≥ 20 µM
